Test results from patent US20140017260A1.

Biological target: Runx2
Assay: cell-based or functional assay

Substance	suppression of Runx2 activation of the p6OSE2-Luc reporter construct [%]
Rorβ ΔHinge (deletion of the Hinge domain), C-terminal FLAG (receptor)	28
retinoic acid receptor-related orphan receptor beta (Rorβ), wild-type, with C-terminal FLAG epitope	91
Rorβ E28A/G29A double-point mutant in the DBD, C-terminal FLAG (receptor)	96
Rorβ ΔLBD (deletion of the ligand binding domain), C-terminal FLAG (receptor)	88
Rorβ ΔAD (deletion of the activation domain), C-terminal FLAG (receptor)	75
